The assay deals with mCerulean3-BaxΔCTS. Description: FRET or BRET; quantitative fast FLIM-FRET (qF3) in live HCT116 DKO cells stably expressing the donor ^CBaxΔCTS (1 to 3 µM) and transiently the Venus acceptor (0 to 50 µM); 10 µM Q-VD-OPH; fit to a Hill equation with h = 1; apparent Kd. A general note: Bioluminescence resonance energy transfer reports proximity on the nanometre scale.

pKd: −log10 of the molar value.

In general, pKd refers to −log10 of the Kd, conventionally taken in molar units.

As to Venus-tBid (domain or fragment), the pKd was 4.79.
In the case of “Venus-tBid(Nes2-BH3 C-ter) chimera (from UniProt P70444 1-81; P70444 101-195)” it was 4.77.
